Test results published in patent US20080009021A1.

Biological target: E3 His-ROC1/Cul1 complex (UniProt Q13616)
Assay: cell-based or functional assay

- amount of E3 giving maximum attachment of ubiquitin moiety to E3 (luminescence, nickel plate) (ng per 100 µl): 200 to 300
Substance: Flag-ubiquitin moiety
